Reference: US20160347802A1 (MAX PLANCK GESELLSCHAFT ZUR FOERDERUNG DER WISSENSCHAFTEN E …, published 2016)

T1: human DRAXIN, AVEXIS prey or bait protein (human, UniProt Q8NBI3 26-349)
T1 sequence: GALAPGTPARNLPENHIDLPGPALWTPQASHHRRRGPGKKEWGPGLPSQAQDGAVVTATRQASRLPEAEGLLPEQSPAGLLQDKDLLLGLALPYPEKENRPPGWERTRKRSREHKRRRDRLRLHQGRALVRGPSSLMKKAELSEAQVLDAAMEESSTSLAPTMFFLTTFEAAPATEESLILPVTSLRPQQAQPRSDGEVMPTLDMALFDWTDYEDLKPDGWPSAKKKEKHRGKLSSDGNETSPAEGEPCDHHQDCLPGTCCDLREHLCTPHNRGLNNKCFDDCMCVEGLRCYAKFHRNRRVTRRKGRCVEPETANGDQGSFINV

T2: human DRAXIN 21 amino acid Netrin binding fragment, AVEXIS prey or bait protein (human)
T2 construct: Tested in both bait and prey orientations; also called human 21 amino acid DRAXIN fragment; derived 21 amino acid peptide; not shown: AVEXIS tag (rat Cd4d3+4 and prey or bait module)
T2 peptide: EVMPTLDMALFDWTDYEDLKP

B1: human Netrin-G1, AVEXIS protein (ligand, UniProt Q9Y2I2 29-510, looked up)
chain: HYDLCKTQIYTEEGKVWDYMACQPESTDMTKYLKVKLDPPDITCGDPPETFCAMGNPYMCNNECDASTPELAHPPELMFDFEGRHPSTFWQSATWKEYPKPLQVNITLSWSKTIELTDNIVITFESGRPDQMILEKSLDYGRTWQPYQYYATDCLDAFHMDPKSVKDLSQHTVLEIICTEEYSTGYTTNSKIIHFEIKDRFAFFAGPRLRNMASLYGQLDTTKKLRDFFTVTDLRIRLLRPAVGEIFVDELHLARYFYAISDIKVRGRCKCNLHATVCVYDNSKLTCECEHNTTGPDCGKCKKNYQGRPWSPGSYLPIPKGTANTCIPSISSIGNCECFGHSNRCSYIDLLNTVICVSCKHNTRGQHCELCRLGYFRNASAQLDDENVCIECYCNPLGSIHDRCNGSGFCECKTGTTGPKCDECLPGNSWHYGCQPNVCDNELLHCQNGGTCHNNVRCLCPAAYTGILCEKLRCEEAGSCGS
notes: not shown: AVEXIS tag (bait or prey)
B2: human Netrin-G2, AVEXIS protein (ligand, UniProt Q96CW9 18-507, looked up)
chain: DYDICKSWVTTDEGPTWEFYACQPKVMRLKDYVKVKVEPSGITCGDPPERFCSHENPYLCSNECDASNPDLAHPPRLMFDKEEEGLATYWQSITWSRYPSPLEANITLSWNKTVELTDDVVMTFEYGRPTVMVLEKSLDNGRTWQPYQFYAEDCMEAFGMSARRARDMSSSSAHRVLCTEEYSRWAGSKKEKHVRFEVRDRFAIFAGPDLRNMDNLYTRLESAKGLKEFFTLTDLRMRLLRPALGGTYVQRENLYKYFYAISNIEVIGRCKCNLHANLCSMREGSLQCECEHNTTGPDCGKCKKNFRTRSWRAGSYLPLPHGSPNACATAGSFGNCECYGHSNRCSYIDFLNVVTCVSCKHNTRGQHCQHCRLGYYRNGSAELDDENVCIECNCNQIGSVHDRCNETGFCECREGAAGPKCDDCLPTHYWRQGCYPNVCDDDQLLCQNGGTCLQNQRCACPRGYTGVRCEQPRCDPADDDGGLDCDRAPG
notes: as for B1
B3: human Netrin-4, AVEXIS protein (ligand, UniProt Q9HB63 19-628, looked up)
chain: GLSGVAGVSSRCEKACNPRMGNLALGRKLWADTTCGQNATELYCFYSENTDLTCRQPKCDKCNAAYPHLAHLPSAMADSSFRFPRTWWQSAEDVHREKIQLDLEAEFYFTHLIVMFKSPRPAAMVLDRSQDFGKTWKPYKYFATNCSATFGLEDDVVKKGAICTSKYSSPFPCTGGEVIFKALSPPYDTENPYSAKVQEQLKITNLRVQLLKRQSCPCQRNDLNEEPQHFTHYAIYDFIVKGSCFCNGHADQCIPVHGFRPVKAPGTFHMVHGKCMCKHNTAGSHCQHCAPLYNDRPWEAADGKTGAPNECRTCKCNGHADTCHFDVNVWEASGNRSGGVCDDCQHNTEGQYCQRCKPGFYRDLRRPFSAPDACKPCSCHPVGSAVLPANSVTFCDPSNGDCPCKPGVAGRRCDRCMVGYWGFGDYGCRPCDCAGSCDPITGDCISSHTDIDWYHEVPDFRPVHNKSEPAWEWEDAQGFSALLHSGKCECKEQTLGNAKAFCGMKYSYVLKIKILSAHDKGTHVEVNVKIKKVLKSTKLKIFRGKRTLYPESWTDRGCTCPILNPGLEYLVAGHEDIRTGKLIVNMKSFVQHWKPSLGRKVMDILKRECK
notes: as for B1

Columns and labels:
[1] = target: B2; test: AVEXIS, prey NTNG1 on bait NTNG2
From the text: (§1) The Matn4-bait served as an internal prey-protein control and was used for normalization of the A486 nm values; conditioned medium (CM) serves as negative control; n=3.

[2] = target: T3, human Netrin1, recombinant AVEXIS protein (biotinylated when immobilised) (human, UniProt O95631 25-604); test: AVEXIS, prey NTN1 on bait NTNG1
T3 construct: also called NTN1
From the text: as §1

[3] = target: T3, human Netrin1, recombinant AVEXIS …; test: AVEXIS, prey on bait NTN1; white = No binding
From the text: as §1

[4] = target: the molecule itself; test: AVEXIS, prey NTNG1 on bait NTNG1
From the text: as §1

[5] = target: T4, human Netrin-3, AVEXIS protein (human, UniProt O00634 28-580); test: AVEXIS, prey NTN3 on bait NTNG1
T4 construct: not shown: AVEXIS tag (bait or prey)
From the text: as §1

[6] = target: T5, biotinylated recombinant human UNC5B (human, UniProt Q8IZJ1 27-377); test: AVEXIS, prey on bait UNC5B; white = No binding
T5 construct: Made in HEK293-6E and immobilised on an SA chip
From the text: as §1

[7] = target: B3; test: AVEXIS, prey on bait NTN4; white = No binding
From the text: as §1

[8] = target: the molecule itself; test: AVEXIS, prey on bait NTNG1; white = No binding
From the text: as §1

[9] = target: T1, human DRAXIN, AVEXIS prey or bait …; test: AVEXIS, prey on bait DRAXIN; white = No binding
From the text: as §1

[10] = target: T4, human Netrin-3, AVEXIS protein; test: AVEXIS, prey on bait NTN3; white = No binding
From the text: as §1

[11] = target: B2; test: AVEXIS, prey on bait NTNG2; white = No binding
From the text: as §1

[12] = target: B3; test: AVEXIS, prey NTN4 on bait NTNG1
From the text: as §1

[13] = target: T6, Matn4 ECD, mono-biotinylated bait protein (positive control); test: AVEXIS, prey on bait Matn4 (+), positive control for the prey; dark = Binding
T6 construct: extracellular domain; also called Matn4-bait
From the text: as §1

[14] = target: T2, human DRAXIN 21 amino acid Netrin …; test: AVEXIS, prey on bait DRAXIN 21aa; white = No binding
From the text: as §1

[15] = target: B3; test: AVEXIS, prey NTN4 on bait NTNG2
From the text: as §1

[16] = target: the molecule itself; test: AVEXIS, prey NTNG2 on bait NTNG2
From the text: as §1

[17] = target: T4, human Netrin-3, AVEXIS protein; test: AVEXIS, prey NTN3 on bait NTNG2
From the text: as §1

[18] = target: T3, human Netrin1, recombinant AVEXIS …; test: AVEXIS, prey NTN1 on bait NTNG2
From the text: as §1

[19] = target: B1; test: AVEXIS, prey on bait NTNG1; white = No binding
From the text: as §1

[20] = target: the molecule itself; test: AVEXIS, prey on bait NTNG2; white = No binding
From the text: as §1

[21] = target: T3, human Netrin1, recombinant AVEXIS …; test: AVEXIS, prey NTN1 on bait NTN4
From the text: as §1

[22] = target: the molecule itself; test: AVEXIS, prey on bait NTN4; white = No binding
From the text: as §1

[23] = target: the molecule itself; test: AVEXIS, prey NTN4 on bait NTN4
From the text: as §1

T4 sequence (O00634 28-580): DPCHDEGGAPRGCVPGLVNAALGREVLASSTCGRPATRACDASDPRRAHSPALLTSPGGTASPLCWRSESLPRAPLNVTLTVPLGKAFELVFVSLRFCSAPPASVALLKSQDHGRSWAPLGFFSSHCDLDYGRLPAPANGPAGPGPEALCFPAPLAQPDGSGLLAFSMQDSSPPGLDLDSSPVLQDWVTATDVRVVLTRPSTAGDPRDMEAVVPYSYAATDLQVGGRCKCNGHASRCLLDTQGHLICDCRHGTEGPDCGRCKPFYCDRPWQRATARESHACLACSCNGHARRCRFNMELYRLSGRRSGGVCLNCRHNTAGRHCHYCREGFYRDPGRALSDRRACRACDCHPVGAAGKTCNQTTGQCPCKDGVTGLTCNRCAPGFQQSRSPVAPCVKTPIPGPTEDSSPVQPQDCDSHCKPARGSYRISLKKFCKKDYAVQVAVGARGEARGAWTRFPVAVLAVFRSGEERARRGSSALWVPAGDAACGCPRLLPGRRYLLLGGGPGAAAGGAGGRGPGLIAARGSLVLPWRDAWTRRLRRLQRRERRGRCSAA

A486nm [3]	A486nm [6]	A486nm [7]	A486nm [9]	A486nm [10]	A486nm [11]	A486nm [13]	A486nm [14]	A486nm [19]	Binder	other results
0.062	0.061	0.066	0.061	0.064	0.061	0.254	0.063	–	B1	binding result [1]: no binding; binding result [2]: no binding; binding result [4]: no binding; binding result [5]: no binding; A486nm [8]: 0.062; binding result [12]: no binding
0.06	0.061	0.063	0.06	0.062	–	0.201	0.063	0.061	B2	binding result [15]: no binding; binding result [16]: no binding; binding result [17]: no binding; binding result [18]: no binding; A486nm [20]: 0.062
0.067	0.063	–	0.063	0.065	0.063	0.235	0.067	0.065	B3	binding result [21]: no binding; A486nm [22]: 0.068; binding result [23]: no binding
